# Laboratory results as given in article PMC4143292, “An Enzymatic Platform for the Synthesis of Isoprenoid Precursors” (PLoS ONE, 2014).
# Columns and labels:
# [1] = substrate: C[C@@](O)(CCO)CC(=O)O; test: PK/LDH-coupled NADH oxidation, progress curves; assay type: biochemical, Staphylococcus aureus; details: ATP 5.0 mM, MgCl2 1.0 mM + nucleotide, KCl 50 mM, Hepes pH 8.0, 25 C, apparent
# Source text: PK/LDH-coupled NADH oxidation, progress curves on MVK (mevalonate kinase)
# [2] = substrate: CC(=O)O; test: purified protein; details: CoA 2.0 mM, ATP 4.0 mM, MgCl2 1.0 mM + nucleotide, KCl 50 mM, Hepes pH 8.0, 25 C, apparent
# [3] = substrate: CC(C)(COP(=O)(O)OP(=O)(O)OC[C@H]1O[C@@H](n2cnc3c(N)ncnc32)[C@H](O)[C@@H]1OP(=O)(O)O)[C@@H](O)C(=O)NCCC(=O)NCCS; test: coupled NADH oxidation, progress curves; assay type: biochemical, Saccharomyces cerevisiae; details: acetate 2.0 mM, ATP 4.0 mM, MgCl2 1.0 mM + nucleotide, KCl 50 mM, Hepes pH 8.0, 25 C, apparent
# Source text: coupled NADH oxidation, progress curves on ACS (acetyl-CoA synthetase)
Protein,Km [1],kcat [1],Km [2],kcat [2],Km [3],kcat [3]
"MVK (mevalonate kinase) (Staphylococcus aureus) (protein, N-terminal His9-GST tag removed with PreScission protease; expressed in E. coli BL21(DE3)) MTRKGYGESTGKIILIGEHAVTFGEPAIAVPFNAGKIKVLIEALESGNYSSIKSDVYDGMLYDAPDHLKSLVNRFVELNNITEPLAVTIQTNLPPSRGLGSSAAVAVAFVRASYDFLGKSLTKEELIEKANWAEQIAHGKPSGIDTQTIVSGKPVWFQKGQAETLKTLSLDGYMVVIDTGVKGSTRQAVEDVHKLCEDPQYMSHVKHIGKLVLRASDVIEHHNFEALADIFNECHADLKALTVSHDKIEQLMKIGKENGAIAGKLTGAGRGGSMLLLAKDLPTAKNIVKAVEKAGAAHTWIENLGG",27 µM,19 s⁻¹,–,–,–,–
ACS (acetyl-CoA synthetase) (Saccharomyces cerevisiae S288C) (protein) MSPSAVQSSKLEEQSSEIDKLKAKMSQSAATAQQKKEHEYEHLTSVKIVPQRPISDRLQPAIATHYSPHLDGLQDYQRLHKESIEDPAKFFGSKATQFLNWSKPFDKVFIPDPKTGRPSFQNNAWFLNGQLNACYNCVDRHALKTPNKKAIIFEGDEPGQGYSITYKELLEEVCQVAQVLTYSMGVRKGDTVAVYMPMVPEAIITLLAISRIGAIHSVVFAGFSSNSLRDRINDGDSKVVITTDESNRGGKVIETKRIVDDALRETPGVRHVLVYRKTNNPSVAFHAPRDLDWATEKKKYKTYYPCTPVDSEDPLFLLYTSGSTGAPKGVQHSTAGYLLGALLTMRYTFDTHQEDVFFTAGDIGWITGHTYVVYGPLLYGCATLVFEGTPAYPNYSRYWDIIDEHKVTQFYVAPTALRLLKRAGDSYIENHSLKSLRCLGSVGEPIAAEVWEWYSEKIGKNEIPIVDTYWQTESGSHLVTPLAGGVTPMKPGSASFPFFGIDAVVLDPNTGEELNTSHAEGVLAVKAAWPSFARTIWKNHDRYLDTYLNPYPGYYFTGDGAAKDKDGYIWILGRVDDVVNVSGHRLSTAEIEAAIIEDPIVAECAVVGFNDDLTGQAVAAFVVLKNKSSWSTATDDELQDIKKHLVFTVRKDIGPFAAPKLIILVDDLPKTRSGKIMRRILRKILAGESDQLGDVSTLSNPGIVRHLIDSVKL,–,–,280 µM,10 s⁻¹,240 µM,10 s⁻¹
